Experimental data published in the nanobody polyreactivity screen of Harvey et al. (2022).

Assay: yeast display, Sf9 membrane polyspecificity reagent, FACS + sequencing; frameworks hold sequencing errors
Outline: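 In a synthetic yeast display library (Saccharomyces cerevisiae BJ5465), nanobody expression was induced with galactose for 36–48 hours. FACS gates were set low and high (top ~1%) using anti-HA fluorescence for expression and streptavidin fluorescence for binding of the Sf9 membrane reagent. Each polyreactivity label is drawn from the gate of origin.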

Sequence | polyreactivity (PSR sort gate)
QVQLVESGGGLVQAGGSLRLSCAASGFIFAFNAMGWYRQAPGKERELVAAISRSGGSTYADSVKGRFTISRDNEKNTVYLQMNSLKPEDTAVYFCAAYSGVGYLWFDYWGHGTQVTVSS | low polyreactivity
QVQLVESGGGLVQAGGSLRLSCAASGSIFYWYDMGWYRQAPGKERELVAAITNDGDSTYYADSVKGRFTISRDNAKNTVYLQMNSLKPEDTAVYYCAADVLFYYEYGSWGQGTQVTVSS | low polyreactivity
QVQLQESGGGLVQAGGSLRLSCAASGTILYSLGMGWYRQAPGKRREFVASITWGTTTNYAESVKGRFTISRDNAKNTVYPQMNSLKPDVTAVYDCAAPPFGDSSYHYWGQGTQVTVSS | low polyreactivity
QVQLVESGGGLVQAGGSLRLSSSASGRIFVYYAMGWYRQAPGKERELVAAITYSVDSTYYADSVKARFTISRDNAKNTVYLQMNSLKPEDTAVYYCATDVDWAYGYQYEYWGQGTQVTVSS | low polyreactivity
QVQLVESGGGLVQAGGSLRLSCAASGRIFSPNAMGWYRQAHVKERELVADITFGDGSTYYADSVKGRFTISRDNAKNTVYLQMNSLIPEDTAVYYCAAELYYLYALYIYYPFYYWGQGTQVTVSS | high polyreactivity
QVQLVESGGGLVQEGGSLRLSCAASGITFGTNAMGWYRQAPGKERELVAAIRRDGSTYYADSVKGRFTISRDNAKNTVYLQMNSLKPEDTAVYYCAATYWGRAYQGYRNLLYGYWGQGTQVTVSS | high polyreactivity
QVQLVESGGGLVQAGGSLRLSCAASGRIFYDNAMGWYRQAPGKERELVAAIRIGGSTNYADSVKGRFTISRDNAKNTVYLQMNSLKPEDTAVYYCNGSDNPDSYYPDSVWGDSWGQGSQVTVSS | low polyreactivity
QVQLVESGGGLVQAGGSLRLSCAASGIISGRNTMGWFRLARGKERELVAAISGSGGSTHYADSVKGRFPSSRDNAKNTVYLQSNSLKPEDTAVYYCAADTAYVYSMDYWGQGTQVTVSS | high polyreactivity
QVQLVESGGGLVQAGGSLRLSCAASGRIFSYYAMRWFRQAPGKERELVAAISSGGSTNYADSVKGRFTISRDNAKNTVYLQMNSLKPEDTAVYYCNAVRGWTTRYDYWGQGTQVTVSS | high polyreactivity
QVQLVESGGGLVQAGGSLRLSCAASGFTFPWYAKGWYRQAPGKERELVAAITSGSSTYYADSVKGRFTISRDNAKNTVYLQMNSLKPEVTAVYYCAKDGGWSRLHYNYWGQGTQVTVSS | high polyreactivity
QVQLVESGGGLVQAGGSHRLSCAASGSTFEYYAMGWYRQAPGKERELVAAITTSGGITYYADSVKGRFTISRDNAKNTVYLQMNSLKPEDTAVYYCNADAVPFPTLVTYLYDYWGQGTQVTVSS | low polyreactivity
QVQLVESGGGLVQAGGSLRLSCAASGRILPFNAMGWYRQAPGKERELVAAIRWRGSSTYYADSVKGRFTISRDIAKNTVYLQMNSLKPEDTAVYYCAAPSSVRGKVISAYYGYWGQGTQVTVSS | high polyreactivity
QVQLVESGGGLVQAGGSLRLSCAASGFIFIQNDMGWYRQAPGKERAFFASISKDGGRTYYADSVKGRFTISRDNAKNTVYLQMNSLKPEDTAVYYCNTYPRGNWGNFVEQDYDYWGQGTQVTVSS | low polyreactivity
QVQLVESGGGLVQAGGSLRLTCAASGSIIALYAMGWYRQAPGKERELVATISSCVSTYYADSVKGRFTISRDNAKNTVYLQLNSLKPEDTAVYYCAADKTVRSSNYDYWGQCTQVTVSS | low polyreactivity
QDQLGESGGGLVQAGGSLRLSCAASGSIFETYVMGWYRQAPGKERELVAAINSGGSTNYADSVKGRFTISRDNAKNTVYLQMNSLKAEDTAVYYCNADWFTPAQPWYRYFIRYDYWGQGTQVTVSS | low polyreactivity
QVQLVESGGGLVQAGGSLRLSCAASGIIFVFYVMGWYRQAPGKERELVAAISGGGSTYYADSVKGRFTISRDNAKNTVYLQMNSLKPEDTAVYYCNADYDGGYYGDLSLYDYWGQGTQVTVSS | low polyreactivity
QVQLVESGGGLVQAGGSLRLSCAASGSTFHVNAMGWYRQAPGKEREFVAAISWRTGSTYYADSVKGRFTISRDNAKNTVYLQMNSLKPEDTAVYYCAAKRSYSNYDYWGQGTQVTVSS | high polyreactivity
QVQLVESGGGLVQAGGRLRLSCAASGFTIRLYTMGWYRQAPGKERELVAAITYSGDSTYYADSVKGRFTISRDNAKNTVYLQMNSLKPVDTAVYYCAARKYYARYYWGQGTQVTVSS | high polyreactivity
QVQLVESGGGLVQAGGSLRLSCAASGSTFFTYAMGWYRQAPGKERELVAAITRGGSSYYADSVKGRFTISRDNAKNTVYLLMNSLKPEDTAVYDCAARVSYRYGYWGQGTQVTVSS | high polyreactivity
QVQLVESGGGLVQAGGSLRLSCAASGRIFQKNAMGWYRQAAGKERELVAAISGSGSTTNYADSVKGRFTISRDNAKNTVYLQMNSLKPEDTAVYYCATGKRGVSGRGYRYVDYDYWGQGTQVTVSS | high polyreactivity
QVQLVESGGGLVQAGVSLRLSCAASGSTFRKYTMGWSRQAPGKERELVAAITYRGDRTYYADSVKGRFTISRDNAKNTVFIQMNSLIPEDTAVYYCASTSYYGAVWYIFYYWGQGTQVTVSS | high polyreactivity
QVQLVESGGGLVQAGGSLRLSCAASGHTLGSYAMGWYRQAPGKERELVAAISSRGGTYYADSVKGRFTISRDNAKNTGYFLMNSLKPDDTAVYYWDAVSGSSKMYYWGQGTQVTVSS | high polyreactivity

Sequence | polyreactivity (PSR sort gate)
QVQLVESGGGLVQAGGSLRLSCAASGNIFRRYAMGWYRQAPGKERELVAAISRGGTRTYYADSVKGRFTISRDNAKNTVYLQMNSLKPEDTAVYYCNAEVKTNYRIADYDYWGQGTQVTVSS | high polyreactivity
QVQLVESGGGLVQAGGSLRLSCAASGFTFGSYAMGWYIQAPGKERELVARISSDGSTNYADSVKGRFTISRDNAKNTVYLQMNSLKPEDTAVYYSARDRKRQADDIGEFDYWGQGTQVTVSS | low polyreactivity
QVQLVESGGGLVQAGGSLRLTCAGSGRIFPFYAMGWYRHAPGKERELVAAISWNGGSTFYADSVKGRFTISRDNAKNTVYLQMNSLKPEDTAVYYCNADFRPAYTYDYWGQGTQVTVSS | low polyreactivity
QVQLVESGGGLVQAGGSLRLSCAAYGSIFTRYAMGWYIQAPGKERELVAAISKRGGRTYYADSVKGRFTISRDNAKNTVYLQMNSLKPEDTAVYYCNAGSYDYYDGSWSYDYWGQGTQVTVSS | high polyreactivity
QVQLVESGGGLVQAGGSLRLSCAASGRIFAQNAMGWYRPAPGKERELVAAISWGGGGTYYADSVKGRFTISRDNAKNTVYLQMNSLKPEDTAVYYCAADSPGFGAWDRYEYWGQGTQVTVSS | low polyreactivity
QVQLVESGGGLVQAGGSLRLSCAASGIIFYRNAMGWYRQAPGKERELVAAISSSGGRTYYADSVKGRFTISRDNAKNTVYLQMNSLKPEDTAVYYCAADYQWFWVWYGYWGQGTQVTVSS | high polyreactivity
QVQLQESGGGLVQAGGSLRLSCAASGSIFEELDMGWYRQAPGKEREFVAAIGTGSTTYYADSVKGRFTISRDNAKNTVYLQMNSLKPEDTAVYYCAVDTWARAYLGYWGQGTQVTVSS | high polyreactivity
QVQLVESGGGLVQAGGSLRLSCAASGIIFVPNAMGWSRHPPGKERELVAAITGRGVSTYYADSVKGRFTISRDTAKKTVYLQMNSLKPEDTAVYYCAATLFSYSGGTHDYWGQGTQVTVSS | high polyreactivity
QVQLVESGGGLVQAGGSLRLRCAASGRTLSSYAMGWYREAPGKERELVAAITRSGGSTYYADSVNGRFTISRDIAKNTVYLQMNSLKPEDTAVYYCAADGYRRYGSWGQGTQVTVSS | high polyreactivity
QVQLVESGGGLVQAGGSLRLSCAASGRIFTQYTMGCYRQAPGKERELVAAINYSGGRTNYADSVKGRFTISRDNAKNTVYLQMNSLKPEDTAVYYCAAGYRRATYGYWGQGTQVTVSS | high polyreactivity
QVQLVESGGGLVQAGGSLRLSCAASGSIFSRYAMGWYRQAPGKERELVAAINGRGSRTYYADSVKGRFTISRDNAKNTVYLQMNSLKPEDTAVYYCAAGRSRLYGPRYFIYKYNYWGQGTQVTVSS | high polyreactivity
QVQLVESAGGLVQAGGSLRLSCAATGRTFYVNAMGWYRQAPGKERELVAAISSGDSSTYYADSVKGRFTSSRDNAKNTVYLQMNSLKPEDTAVYYCAAEVWVYFEYEYWGQGTQVTVSS | high polyreactivity
QVQLVESGGGLVQAGGSLRLSFAASGSTFWLYPMGWYRQATAKDREFVATISSSTTYYADSVKGRFTISRDNAKNTVYLQMNCLKAEDTEVYYCAKQHGLTSGGSRTDYWGQGTQGTVSS | low polyreactivity
QVQLVESGGGLVQAGGSLRLSCAASGSIFYINDMGWYRQAPGTERELVAAISWSGGTTYYADSVKGRFTISRDNAKNTVYLQMNSLKPEDTAVYYCATDSFFLFPWGLSDYWGQGTQVTVSS | low polyreactivity
QVQLVESGGGLVQAGGSLRLSCAASGFTLYRNAMGWYRQAPGKERELVAAITSSGGRTYYADSVKGRFTISRDNAKYTVYLQMNSLKPEVTAVYSCAADFGLGYYYWGQGTQVTVSS | high polyreactivity
QVQLVESGAGLVQAGGSLRLICAASGLTFIYYAMGWYRQAPGKERELVAAISVSGGSTYYADSVKGRFTISRDNAKNTVYLQMNRLQREDTAVYYCAADWLVHKPRYQYSFDFWGQVTQVTVSS | low polyreactivity
QVQLVESGGGLVQARGSLRLSCASSGSIFGWNAMGGYRQAPGKERELVAAISSVGSTYYADSVKGRFTISRDNAKNTVYLQMNSLKPEDTAVYYCAAPVIQITDVWYDAETYPDYDYWGEGTQVTVSS | low polyreactivity
QVQLVESGGGLVQAGGSLGLSCAASGRTIDYYALGWYRQAPGKERELVAAITWDGSTYYADSVKGRFTISRDNAKITVYLQMISLKPEVTAVYYCAADFYWYLDLYDFWGQGTQVTVSS | high polyreactivity
QVQLVESGGGLVQAGGSLRLSCAASGSTFGYYAMGWYRQAPGKERELVAAITKRSGRTYYADSVKGRFTISRDNAKNTVYLQLNSLKPEDTAVYYCAARYTFDRWKFGYWGQGTQVTVSS | high polyreactivity
QVQLVESGGGLVQAGGSLRLSCAASGFIFAYNAMGWYRQAPGKERELVASIRTRAGSTYYADSVKGRFTISRDNAKNTDYLQMNSLKPADTAVYYSAARPFPRRYDYWGQGTQVTVSS | low polyreactivity
QDQLEESGGGLVQAGASLRLSCAAYGSIFSGYAMGRYRQATGKERELVAAITWRAASTYYADSVKGRFTISRDNAKTTVYLQMNSLKPEDTEVYYCAKEGWPKPAFYYWGLGTQVTVSS | low polyreactivity
